Measured values published in PMC3305808 (Molecular Microbiology, 2012).
Residue numbers refer to the chain shown, from its start. In names and notes the source's numbering stands.

B1: λcIDB-AaTadZ (TadZ of Aggregatibacter actinomycetemcomitans fused to the N-terminal DNA-binding domain of λ cI) (natural protein)
chain: MLLLDQETITADSARTITVVSSRDDIQGEVAQTLRTRGLENIEIVKKDFFTSSDEISFSAEDTVGVIIDITHETNIKTIVERVFSVVPQNVWCCVIGDSDSISLSQKLLDEGILYFNSHTQLSQMVEKIILGVDIPRLRDTVKIAVLSCKGGIGASLISSHIANEIVSSKKIPVLLAQGPNGSQDLDLLFDKKLSGNVIEYAPNLDIFNGGLFELTPAATEKYNFIIYDQPIYNVKKDNFIGFLENYNNFVLVVERKIGSLRLAKQFLDECERIRSTSRKPIRTFVCISDNRLEAAKLMAKNDIETLIGSSIDAIIPYVKNTNTKTVLGINLGRDGKKEINSLMLKVIGAISRSSKPKEKQSLFSSFFTKLIKQ
B2: λcIDB-AaTadZ S156A (natural protein)
chain: B1 chain with S156A
B3: λcIDB-AaTadZ A155K (natural protein)
chain: B1 chain with A155K
B4: λcIDB-AaTadZ K150A (natural protein)
chain: B1 chain with K150A
B5: λcIDB-AaTadZ S156T (natural protein)
chain: B1 chain with S156T
B6: λcIDB-AaTadZ K150R (natural protein)
chain: B1 chain with K150R

Target: the molecule itself
Experiment: λ cI repressor fusion dimerization assay

Protein	% repression of λpR-lacZ [%]
B1	60.1
B2	57.6
B3	49.7
B4	60.3
B5	53.7
B6	49
